Target: T1, human Sema4D (semaphorin 4D) (human, UniProt Q92854 22-734)
T1 construct: Semaphorin 4D (Sema4D, CD100), human, recombinant protein bought from R&D Systems, cat. no; 7470-S4; check against the vendor's data sheet; also called CD100; source: bought: R&D (7470-S4)
T1 sequence (looked up): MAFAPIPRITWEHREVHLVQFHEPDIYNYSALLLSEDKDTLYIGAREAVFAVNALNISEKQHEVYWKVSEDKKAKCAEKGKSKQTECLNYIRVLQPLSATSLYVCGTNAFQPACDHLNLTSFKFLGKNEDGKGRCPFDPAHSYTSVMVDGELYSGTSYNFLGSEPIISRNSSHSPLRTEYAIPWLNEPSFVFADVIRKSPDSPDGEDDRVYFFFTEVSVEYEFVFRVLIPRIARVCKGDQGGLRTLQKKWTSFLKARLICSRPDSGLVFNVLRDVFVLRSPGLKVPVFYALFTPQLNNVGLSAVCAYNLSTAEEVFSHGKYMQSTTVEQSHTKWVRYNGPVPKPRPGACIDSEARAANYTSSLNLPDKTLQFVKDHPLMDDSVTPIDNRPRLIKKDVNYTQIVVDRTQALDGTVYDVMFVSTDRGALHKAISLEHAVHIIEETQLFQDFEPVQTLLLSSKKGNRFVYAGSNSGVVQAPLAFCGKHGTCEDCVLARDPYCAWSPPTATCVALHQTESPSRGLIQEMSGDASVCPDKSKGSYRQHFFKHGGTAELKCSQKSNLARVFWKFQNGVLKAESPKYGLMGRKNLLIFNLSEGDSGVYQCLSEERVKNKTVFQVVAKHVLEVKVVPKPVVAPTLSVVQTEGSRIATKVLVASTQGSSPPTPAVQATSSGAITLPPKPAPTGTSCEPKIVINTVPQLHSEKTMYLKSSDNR
Assay: BLI; OctetRED384; 5 μg/ml biotinylated human Plexin-B1 (20–535)-Avi-6xHis captured on an SA biosensor in 1xKinetics buffer; then 50 nM antibody or buffer, then 50 nM human Sema4D; qualitative analysis of association curves
Details: both partners purified

B1: biotinylated human Plexin-B1 (20–535)-Avi-6xHis (domain or fragment, UniProt O43157 20-535, looked up)
chain: LQPLPPTAFTPNGTYLQHLARDPTSGTLYLGATNFLFQLSPGLQLEATVSTGPVLDSRDCLPPVMPDECPQAQPTNNPNQLLLVSPGALVVCGSVHQGVCEQRRLGQLEQLLLRPERPGDTQYVAANDPAVSTVGLVAQGLAGEPLLFVGRGYTSRGVGGGIPPITTRALWPPDPQAAFSYEETAKLAVGRLSEYSHHFVSAFARGASAYFLFLRRDLQAQSRAFRAYVSRVCLRDQHYYSYVELPLACEGGRYGLIQAAAVATSREVAHGEVLFAAFSSAAPPTVGRPPSAAAGASGASALCAFPLDEVDRLANRTRDACYTREGRAEDGTEVAYIEYDVNSDCAQLPVDTLDAYPCGSDHTPSPMASRVPLEATPILEWPGIQLTAVAVTMEDGHTIAFLGDSQGQLHRVYLGPGSDGHPYSTQSIQQGSAVSRDLTFDGTFEHLYVMTQSTLLKVPVASCAQHLDCASCLAHRDPYCGWCVLLGRCSRRSECSRGQGPEQWLWSFQPELGCLQ
modifications: biotin on the Avi-tag (in vitro, BirA enzyme)
notes: Plexin-B1, human, extracellular region residues 20-535; cloned as fragment 1-535 and secreted as 20-535; the Avi-tag stands between the C-terminus of the fragment and the 6xHis tag; The SPR experiments with the antibodies used the form without the Avi-tag, Plexin-B1 (20–535)-6xHis; The cell assays used full-length human Plexin-B1-FLAG (GenScript, pcDNA3.1); also called human recombinant Plexin-B1 …
B1: binds.
